For assay [1], the target named is T1, pertussis toxin holotoxin (Bordetella pertussis, UniProt P04977 35-269; P04978 31-226; P04979 32-227; P0A3R5 43-152; P04981 36-133).
T1 construct: also called PTx; PT
Briefly: SPR (BIAcore 3000), mAb 1B7 immobilised on CM5 chip, toxin injected.

The target in assay [2] is pertussis toxin B-oligomer (Bordetella pertussis, UniProt P04978 31-226; P04979 32-227; P0A3R5 43-152; P04981 36-133). Described as above.
Assay [3] concerns the target full length PTx-S1 (1-235) protomer (Bordetella pertussis, UniProt P04977 35-269). Described as above.
Assay [4] deals with T2, PTx-S1-220 (truncated PTx-S1, residues 1-220, strain Tohama I, variant B) (Bordetella pertussis, UniProt P04977 35-254).
T2 construct: also called WT PTx-S1-220; PTx-S1B
T2 sequence: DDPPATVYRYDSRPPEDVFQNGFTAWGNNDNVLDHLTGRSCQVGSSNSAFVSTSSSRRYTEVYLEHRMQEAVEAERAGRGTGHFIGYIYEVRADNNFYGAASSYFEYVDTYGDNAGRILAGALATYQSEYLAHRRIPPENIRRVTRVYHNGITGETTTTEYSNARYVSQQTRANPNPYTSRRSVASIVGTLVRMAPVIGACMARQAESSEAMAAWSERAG
The description is as above.

Assay [5] concerns the target T3, PTx-S1A (residues 1-220, M194I) (Bordetella pertussis, UniProt P04977 35-254).
T3 chain: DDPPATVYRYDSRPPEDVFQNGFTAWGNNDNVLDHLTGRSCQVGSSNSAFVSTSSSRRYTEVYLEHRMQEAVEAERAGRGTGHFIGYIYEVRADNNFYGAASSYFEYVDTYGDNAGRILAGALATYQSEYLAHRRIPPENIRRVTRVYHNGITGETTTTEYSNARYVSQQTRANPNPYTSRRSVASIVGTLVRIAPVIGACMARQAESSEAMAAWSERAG
Described as above.

Assay [6] deals with T4, PTx-S1D (residues 1-220, D34E, I198V) (Bordetella pertussis, UniProt P04977 35-254).
T4 chain: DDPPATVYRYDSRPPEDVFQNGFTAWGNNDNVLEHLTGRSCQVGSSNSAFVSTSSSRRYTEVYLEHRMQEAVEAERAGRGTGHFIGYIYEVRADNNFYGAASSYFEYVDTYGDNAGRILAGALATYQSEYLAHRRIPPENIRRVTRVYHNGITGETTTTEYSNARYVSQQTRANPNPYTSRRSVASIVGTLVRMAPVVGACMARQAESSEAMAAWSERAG
The description is as above.

The target in assay [7] is T5, PTx-S1 9K/129G (residues 1-220, R9K, E129G) (Bordetella pertussis, UniProt P04977 35-254).
T5 chain: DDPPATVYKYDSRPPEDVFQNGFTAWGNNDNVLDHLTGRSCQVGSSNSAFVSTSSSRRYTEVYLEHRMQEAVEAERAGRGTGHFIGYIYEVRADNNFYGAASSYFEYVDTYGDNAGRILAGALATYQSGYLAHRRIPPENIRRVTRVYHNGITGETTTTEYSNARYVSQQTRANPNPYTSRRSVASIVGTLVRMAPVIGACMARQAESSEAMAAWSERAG
Described as above.

The target of another assay is T6, PTx-S1-220 E155A (Bordetella pertussis, UniProt P04977 35-254).
T6 chain: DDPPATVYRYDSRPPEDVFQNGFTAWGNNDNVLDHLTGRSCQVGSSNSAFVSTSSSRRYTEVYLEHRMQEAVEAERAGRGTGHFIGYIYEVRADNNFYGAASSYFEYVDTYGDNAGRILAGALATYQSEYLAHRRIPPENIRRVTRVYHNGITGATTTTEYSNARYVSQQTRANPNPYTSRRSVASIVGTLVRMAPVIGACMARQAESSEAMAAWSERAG
The assay is described as above.

The target of another assay is T7, PTx-S1-220 Y161A (Bordetella pertussis, UniProt P04977 35-254).
T7 chain: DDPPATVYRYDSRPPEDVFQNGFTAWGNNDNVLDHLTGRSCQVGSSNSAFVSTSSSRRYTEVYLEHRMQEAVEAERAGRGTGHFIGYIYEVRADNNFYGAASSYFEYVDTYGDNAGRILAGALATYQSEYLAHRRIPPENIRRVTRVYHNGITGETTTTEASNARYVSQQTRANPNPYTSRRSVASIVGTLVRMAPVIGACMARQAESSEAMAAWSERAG
The description is as above.

A further assay deals with T8, PTx-S1-220 R79A (Bordetella pertussis, UniProt P04977 35-254).
T8 chain: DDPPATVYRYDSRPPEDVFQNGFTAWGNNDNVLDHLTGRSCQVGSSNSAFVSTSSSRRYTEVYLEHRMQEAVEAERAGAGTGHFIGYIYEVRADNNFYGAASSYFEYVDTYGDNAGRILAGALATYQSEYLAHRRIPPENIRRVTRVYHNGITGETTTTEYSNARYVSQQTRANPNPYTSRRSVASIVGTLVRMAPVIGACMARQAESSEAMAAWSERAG
Described as above.

Assay [8] has as its target T1, pertussis toxin holotoxin. Put plainly: competition ELISA (Friguet), 5 nM antibody with PT in solution, coated PT. For orientation: An ELISA detects its analyte on a solid surface through an enzyme-linked reagent.

B1: murine monoclonal antibody 1B7 (antibody, V domains shown)
VH: EVQLQQSGSELVRPGASVKLSCKASGYKFTSYWMHWVKQRPGQGLEWIGNIFPGSGSTNYDEKFNSKATLTVDTSSNTAYMQLSSLTSEDSAVYYCTRWLSGAYFDYWGQGTTLTVSS
VL: DIQMTQSPALMSASPGEKVTMTCSASSSVSFMYWYQQKPRSSPKPWIYLTSNLPSGVPARFSGSGSGTSYSLTISSMEAEDAATYYCQQWSSHPPTFGSGTKLEIKR
notes: also called mAb 1B7; 1B7 mAb
B1: the koff – broadly, the rate constant with which the complex falls apart – in assay [1] was 0.0004 s⁻¹; in assay [2], 0.0027 s⁻¹; in assay [3], 0.0019 s⁻¹; in assay [4] it was 0.0014 s⁻¹; in assay [5], 0.00071 s⁻¹; in assay [6], 0.00095 s⁻¹. Also, the koff is 0.0016 s⁻¹ in [7], 0.0011 s⁻¹ with PTx-S1-220 E155A, 0.0013 s⁻¹ in the assay with PTx-S1-220 Y161A and 0.025 s⁻¹ with PTx-S1-220 R79A. Also, the dissociation constant Kd (as a rule, the equilibrium constant for the complex coming apart) in assay [8] was 1.1 nM.

The record behind these values is patent publication US20140193401A1 (published 2014).
